Results on 30 sequences are retold here after the nanobody polyreactivity screen of Harvey et al. (2022).

This data set in a line: yeast display, Sf9 membrane polyspecificity reagent, FACS + sequencing; frameworks hold sequencing errors. A digest of the protocol: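 Nanobodies came from a synthetic yeast display library in Saccharomyces cerevisiae BJ5465, induced with galactose for 36–48 hours and stained for 1 hour at 4 °C with 10% biotinylated, detergent-solubilized Sf9 membrane reagent. Cells were enriched on streptavidin microbeads and then FACS-sorted, with low and high (top ~1%) gates set on anti-HA fluorescence for expression and streptavidin fluorescence for reagent binding. Each polyreactivity label reflects the gate a clone came from. Genes were amplified by colony PCR, sequenced by MiSeq 2 × 250 and filtered by CDR length.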
As to “QGQLVESGGGLVQAGGSLRLSCAASGRIVGPNTMGWSRQAPGKERELVAAISSGGGTYYADSVKGRFTISRDNAKNTVYLQMNSLKPEDTAVYYCAADYTTLKLYYWFDYWGQGTHVTVSS”, the “polyreactivity (PSR sort gate)” value is recorded as “low polyreactivity”.
The same measure for “QVQLVESGGGLVQAGGSLRLSCAASGFIFIVNAMGWYRQAPGKERELVATISSSGDITRYADSVKARFTISRDNAKNTVYLQMNSLKPEDTAVYYCAARLWTGYWGQGTQVTVSS”: “high polyreactivity”.
The same measure for “QVQLVESGGGLVQAGGSLRLSCAASGSTFLRYAMGWYRQAPGTERELVAALSYSGGSTYYADSVKGRFTISRDTAKKTVSLQMNSLKPEDTAVYYCNAGVFANDNGGRLDQFTWEYEYWGQGTQVTVSS”: “low polyreactivity”.
“QVQLVESGGGLVQAGGSLRLSCAASGSTSVGNAMGWYRQAPGKERELVAAMSRIGGTTYYADSVKGRFTISRDNAKNTVYLQMNSLKPEDTAVYYCNVLKRYWSGRVDYWGQGTQVTVSS”: the “polyreactivity (PSR sort gate)” value is recorded as “high polyreactivity”.
Regarding “QVQLEESGGGLVQAGGSLRLSCAASGRTTYWYAMGWYRQAPGKERELVADISWSGGSTYYADSVKGRFTISRDNAKNTVYLQMNSLKPEDPAVYYCNAAEQKYSIYYAFDTGPYDYWGQGTQVTVSS”, the “polyreactivity (PSR sort gate)” value is “low polyreactivity”.
The same measure for “QVQLVESGGGLVQAGGSLRLSCAASGFTFHPNSMGWYRQAPGKERELVASISSRGGSTYYADSVKGRFTISRDNAKNTVYLQMNSQKPEYTAVYYCNVRGTQYYGHIGFYYWGQGTQVTVSS”: “low polyreactivity”.
Consider “QVQLVESGGGLVQAGGSLRLSCAASGYIFGHYAMGWSRQAPGKERELVAGITWRGGSTYYADSVKGRFTISRDNAKNTVYLQLNSLKPEDTAVYYCNAQYTQRWPYGLYYEMDYWGQGTQVSVSS”, for which the “polyreactivity (PSR sort gate)” value is on record as “low polyreactivity”.
“QVQLVESGGGLVQAGGSLRLSCAAYGFTFAFYALGRYRQSPGKERELVAAITGSGGSTYYADSVKGRFTISRDNSKNTVYLQMNSLKPEDTAVYYCNTYTYYSRMDYWGQGTQVTVSS”: the “polyreactivity (PSR sort gate)” value was “high polyreactivity”.
The same measure for “QVQLVESGGGLVQAGGSLRLSCAASGIILIQNSMGWSRHAPGKERELVAAISTRGGRTYYADSVKGRFTISRDNAKNTVYLQMNSLKPEDTAVYYCAAYRTTPYRDYKMDYWGQGTQVTVSS”: “high polyreactivity”; for “QVQLVESGGGLVQAGGSLRLSCAASGRTFFGYAMGWYRQAPGKERELVATISGSGASTYYADSVKGRFTISRDNAKNTVYLQMNSLKPEDTAVYYCAARYVTTRHSRYYYWGQGTQVTVSS”: “high polyreactivity”; for “QVQHVDSGGGIVQAGGSLRLSCAPSGRTILRYTMGWYRHAPGKERELVASITRGGSSYYADSVKGRFTISRDNAKNTVYLQMNSLKPEDTAVYYCAARRYYGVYYAFYYWGQGTQVTVSS”: “high polyreactivity”.
The same measure for “QVQLVESGGGLVQAGGSLRLSCAASGSTFYYYAMGWYRQAPGKERELVAAISWSGGSTYYADSVKGRFTISRDNAKNTVYLQMNSLKPEDTAVYYCNKYVRFRGGAYVTGYDYWGQGTQVTVSS”: “high polyreactivity”; for “QVQLVQSGGGLVQAGGSLRLSCAASGRIFNNYAMGWYRQAPRKERELLAAISGSGGSTYYADSVKGRFTISRDNAKNTVYLQMNCMKPEDTAVYYCSTSGPQYYSRNFDYWGQGTQVTVSS”: “low polyreactivity”; for “QVQLVESGGGLVQAGGSLRISCAASGGTFLYYAMGWYRQAPGKERELVAAISRGGSTHYADSVKGRFTISRDNAKNTVYLQMNSLKPEDTAVYYCAVDGGEFSSYGYWGQGTQVTVSS”: “low polyreactivity”.
As to “QVQLVESGGGLVQAGGSLRLSCAASGNIFRPYTMGWYRQAPGKERELVARISSGGSTNYADSVKGRFTISRDNAKNTVYLQMNSLKPEDTAVYYCNTVFRGSSTRGYDYWGQGTQVTVSS”, the “polyreactivity (PSR sort gate)” value is listed as “high polyreactivity”.
Then “QVQLVESGGGLVQAGGSLRLICAASGSTFIWNSMGWYRQAPGKERELGATITGSGDRTTYADSVKGRFTISRDNAKNTVYLQMNSLKPEDTAVYYCAGDAYRWWVRYDYWGQGTQVTVSS”, with “low polyreactivity”.
The same measure for “QVQLQESGGCLVQAGGSLRLSCAASGPISRRSTMGWYSQAPGKERELVTAITRGTNTNYADSVKGRFTISRDNAKNTEYLQMNSLKTEDTAVYYCAAYGVLKPSRGDAVFHRYWGQGTQVTVSS”: “low polyreactivity”; for “QVQLVESGGGLVQAGCSLRLSCAASGITFANYAMGWYRPAPGKVRELVAAINWSGGITYADSVKGRFTISRDNAKNTVYLQMHSLKPEDTAVYYCNPYYPDYAKYDYWGQGTQVTVSS”: “low polyreactivity”; for “QVQLVESGGGLVQAGGSLRLSCAASGRTFLYYAMGWYRQAPGKERELVAGITSGGSTNYADSVKGRFTITRDNAKNTVYLQMNSLKPEDTAVYYCAVDQGYSRTADVNYDYWGQGTQVTVSS”: “low polyreactivity”.
Regarding “QVQLVESGGGLVQAGGSLRLSCAASGFTFAYNAMGWYRQAPGKERELVATISWSGGSPYYADSVKGRFTISRDNAKNTVYLQMNSLKPEDTAVYYCATTIFYTYYGLYDYWGQGTQVTVSS”, the “polyreactivity (PSR sort gate)” value is on record as “high polyreactivity”.
Then “QVQLVESGGGLVQAGGSLRLSCAASGSTFYYYVMGWYRQAPGKERELVATITSGGSTNYADSVKGRFTISRDNAKNTVYLQMNSLKPEDTAVYYCAADWYLIIARSRPTLDYDYWGQGTQVTVSS”, with “low polyreactivity”; and “QVKLVESGGGLVQAGGSLRLSCAASGSIFPHYAMGWYRQAPGKERELVAAISRGGSTNYADSVKGRFTISRDNAKNTVYLQMNSLKPEDTAVYYCNALRYYSRFLYAVAYRYDYWGQGSQVTVSS”, with “high polyreactivity”.
Then “QVQLEVSAGGLVQAGGSLRLSCAASGSTFGYYAMGWYRQAPGKEWELVAAITSGASTNYSDSVKGRFTISRDNAKNSVYLQMNSLKPEDTAVYYCAAGFQTRTPLNEFDYWGQGTQVTVSS”, with “low polyreactivity”; and “QVQLVESGGGLVQAGGSLRLSCAASGSIFAPNAMGWYRQAPGKERELVARISRTGGSTNYADSVKGRFTISRDNAKNTVYLQMNSLKPEDTAVYYCNTQYSYSSAPPFWYTQMYYWGQGTQVTVSS”, with “high polyreactivity”.
On to “QVQLVESGGGIVQAGGSLRLSCAASGGIFYRNAMGWYRQAPGKERELVAAISWRGGSTYYADSVKGRFTNSRDNAKNTVYLQMNSLKPEDTAVYFCAARSVATYRYDYWGQGTQVTVSS”, for which the “polyreactivity (PSR sort gate)” value is “high polyreactivity”.
For “QVQLVESGGGLVQAGGSLRLSCAASGSIFGTNAMGWYRQAPGKERELVATITSAGSTYYADSVKGRFTISRYNAKNTVYLQMNSLKPEDTAVYYCARQATGYVYREYEYWGQGTQVTVSS”, the “polyreactivity (PSR sort gate)” value is listed as “low polyreactivity”.
Then “QVQLVESGGGLVQAGGSLRISCAASGSIFYGNAMGWYRQAPGKERELVAAISKRGGSTYYADSVKGRFTISRDNAKNTVYLQMNSLKPEDTAVYYCAKATAGHTEYYYWGQGTQVTVSS”, with “high polyreactivity”; and “QVQLVESGGGLVQAGGSLRLSCAASGSTFGPYTMGWYRQAPGKERELVAAISYSGASTYYADSVKGRFTISRDNAKNTVYLQMNSLKPEDTAVYYCNTVYRYTRARYPYDYWGQGTQVTVSS”, with “high polyreactivity”.
The same measure for “QVHHVESGGGLVQAGGSLRISCAASGAIFFFNTMGWYRLAPGKERELVAVITSGGSTYYADSVKGRFTISRDNAKNTVYLQMNSLKPEDTAVYYCNAYTWGVGSSLDDVGYWGQGTQVTVSS”: “low polyreactivity”; for “QVQLVESGGGLVQAGGSLRLSCAASGYIFSLNAMGWYRQAPGKERELVAGIRKRGGSTYYADSVKGRFTISRDNAKNTVYLQMNSLKPEDTAVYYCAAQPALTYRFYYWGQGTQVTVSS”: “high polyreactivity”.
